The values below come from PMC4874879 (Molecular cell, 2016).

In assay [1] the target is FLAG- and V5-tagged ATXN7L3 (UniProt Q14CW9). Nature of the assay: affinity purification with mass spectrometry.
The target of assay [2] is T1, FLAG- and V5-tagged ATXN7L3 (UniProt Q14CW9 1-347).
T1 sequence (looked up): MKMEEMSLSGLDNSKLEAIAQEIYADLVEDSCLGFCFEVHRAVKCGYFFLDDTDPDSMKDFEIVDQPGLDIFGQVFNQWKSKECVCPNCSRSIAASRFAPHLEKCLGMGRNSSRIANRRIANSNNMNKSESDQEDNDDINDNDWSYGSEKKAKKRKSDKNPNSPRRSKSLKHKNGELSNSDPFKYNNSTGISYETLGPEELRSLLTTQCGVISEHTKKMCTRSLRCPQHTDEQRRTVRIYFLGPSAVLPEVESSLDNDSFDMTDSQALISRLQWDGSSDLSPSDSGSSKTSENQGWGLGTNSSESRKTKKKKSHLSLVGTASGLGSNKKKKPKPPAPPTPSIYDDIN
Nature of the assay: affinity purification with mass spectrometry.

USP27X (endogenous) (enzyme) yielded a fold increase of association with ATXN7L3 upon depletion of USP22 in assay [1] of 5.5 fold.

B1: USP51 (endogenous) (enzyme, human (endogenous in 293T), UniProt Q70EK9 1-711, looked up)
chain: MAQVRETSLPSGSGVRWISGGGGGASPEEAVEKAGKMEEAAAGATKASSRREAEEMKLEPLQEREPAPEENLTWSSSGGDEKVLPSIPLRCHSSSSPVCPRRKPRPRPQPRARSRSQPGLSAPPPPPARPPPPPPPPPPPAPRPRAWRGSRRRSRPGSRPQTRRSCSGDLDGSGDPGGLGDWLLEVEFGQGPTGCSHVESFKVGKNWQKNLRLIYQRFVWSGTPETRKRKAKSCICHVCSTHMNRLHSCLSCVFFGCFTEKHIHKHAETKQHHLAVDLYHGVIYCFMCKDYVYDKDIEQIAKETKEKILRLLTSTSTDVSHQQFMTSGFEDKQSTCETKEQEPKLVKPKKKRRKKSVYTVGLRGLINLGNTCFMNCIVQALTHIPLLKDFFLSDKHKCIMTSPSLCLVCEMSSLFHAMYSGSRTPHIPYKLLHLIWIHAEHLAGYRQQDAHEFLIAILDVLHRHSKDDSGGQEANNPNCCNCIIDQIFTGGLQSDVTCQACHSVSTTIDPCWDISLDLPGSCATFDSQNPERADSTVSRDDHIPGIPSLTDCLQWFTRPEHLGSSAKIKCNSCQSYQESTKQLTMKKLPIVACFHLKRFEHVGKQRRKINTFISFPLELDMTPFLASTKESRMKEGQPPTDCVPNENKYSLFAVINHHGTLESGHYTSFIRQQKDQWFSCDDAIITKATIEDLLYSEGYLLFYHKQGLEKD
Turning to B1, in assay [2], the “fold increase of association with ATXN7L3 upon depletion of USP22” value was approximately 4 fold.
